According to PMC3206353 (The Journal of Cell Biology, 2011):

Experiments:
[1] = molecular target: pyrene-labeled ADP-actin filaments (chicken breast muscle actin) (chicken, UniProt P68139 1-377, pyrene (pyrene iodoacetamide) on cysteine-374); experiment: other fluorescence titration
[2] = molecular target: Mg-ATP-actin monomer (chicken breast muscle actin) (chicken, UniProt P68139 1-377); experiment: inhibition of nucleotide exchange

B1: cofilin-M3 (natural protein)
chain: MSFSGVKVSPECLEAFQELKLGKSLRYVVFKMNDTKTEIVVEKKSTDKDFDTFLGDLPEKDCRYAIYDFEFNLGEGVRNKIIFISWSPDVAPIKSKMVYSSSKDTLRRAFTGIGTDIQATDFSEVAYETVLAAVTRK
Question: How did the “Ka of the cooperative model (Kd = 1/(ω*Ka))” value [1] turn out when B1 was run?
Answer: Its value is 0.08 µM⁻¹.

Question: What about the Kd [1] of the same binder?
Answer: The Kd was 890 nM.

Question: And the Kd [2]?
Answer: Its Kd is 170 nM.
